Experiments:
[1] = target: T1, VEGFR-3-cFMS chimeric receptor (extracellular domain of human VEGFR-3 fused with the transmembrane and … (human, UniProt P07333 518-972, limits assumed)); test: cell-based or functional assay
T1 sequence: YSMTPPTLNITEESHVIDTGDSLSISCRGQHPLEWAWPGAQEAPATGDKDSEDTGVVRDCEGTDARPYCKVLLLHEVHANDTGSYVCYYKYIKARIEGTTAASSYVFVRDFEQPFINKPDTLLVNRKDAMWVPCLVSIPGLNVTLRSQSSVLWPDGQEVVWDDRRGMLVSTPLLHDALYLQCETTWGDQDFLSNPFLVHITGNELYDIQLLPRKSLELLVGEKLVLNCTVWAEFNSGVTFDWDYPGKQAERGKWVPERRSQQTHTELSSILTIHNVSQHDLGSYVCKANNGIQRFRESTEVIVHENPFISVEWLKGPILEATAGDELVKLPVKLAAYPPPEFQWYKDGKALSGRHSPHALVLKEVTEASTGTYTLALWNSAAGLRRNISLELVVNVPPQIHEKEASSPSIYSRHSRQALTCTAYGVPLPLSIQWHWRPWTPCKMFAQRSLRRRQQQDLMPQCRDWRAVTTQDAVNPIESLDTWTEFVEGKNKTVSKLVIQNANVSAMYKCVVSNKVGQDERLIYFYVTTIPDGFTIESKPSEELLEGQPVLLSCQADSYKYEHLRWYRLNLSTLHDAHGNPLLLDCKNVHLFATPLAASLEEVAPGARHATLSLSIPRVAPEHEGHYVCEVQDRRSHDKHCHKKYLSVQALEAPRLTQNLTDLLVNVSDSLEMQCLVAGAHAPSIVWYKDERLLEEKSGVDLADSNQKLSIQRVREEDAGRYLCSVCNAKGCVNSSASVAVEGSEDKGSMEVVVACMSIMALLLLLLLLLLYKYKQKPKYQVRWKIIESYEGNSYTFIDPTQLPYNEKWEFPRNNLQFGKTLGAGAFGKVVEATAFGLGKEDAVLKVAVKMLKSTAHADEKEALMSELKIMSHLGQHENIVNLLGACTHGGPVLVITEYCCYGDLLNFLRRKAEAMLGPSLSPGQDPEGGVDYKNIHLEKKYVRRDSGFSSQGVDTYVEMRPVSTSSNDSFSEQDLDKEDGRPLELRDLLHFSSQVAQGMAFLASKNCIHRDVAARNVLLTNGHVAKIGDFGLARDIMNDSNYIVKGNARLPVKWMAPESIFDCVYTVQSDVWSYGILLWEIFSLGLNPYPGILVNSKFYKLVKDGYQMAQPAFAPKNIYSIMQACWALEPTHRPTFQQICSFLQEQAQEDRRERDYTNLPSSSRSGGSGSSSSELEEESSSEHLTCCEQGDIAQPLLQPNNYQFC

[2] = target: T2, human sR3-AP (full-length soluble extracellular region of human VEGFR-3, Ig domains 1-7, fused to human … (human)); test: SPR, BIACORE 2000 at 20° C, sR3-AP immobilized, antibody injected at 0.8 to 6.25 nM
T2 construct: also called soluble extracellular domain of human VEGFR-3
Protocol: Sensograms are evaluated using the BIA Evaluation 3.2 program to determine the on rates (ka) and the off rates (kd). The dissociation constant (Kd) is calculated from the ka and kd rates using the equation: […].

[3] = target: chimera 2 (human Ig1-mouse Ig2-mouse Ig3) sR3-AP (human; mouse, UniProt P05187 23-511); test: sR3-AP chimera binding assay on antibody-coated plates
Protocol: (§1) After 2 hr incubation, the plates are washed 5 times and bound sR3-AP is detected by chemiluminescence.
(§2) DNA sequences encoding mouse and human Ig domains 1-3 are swapped in various combinations to form the following VEGFR-3 extracellular domain constructs: i) wild-type human; ii) wild-type mouse; iii) chimera 1 (human Ig1-human Ig2-mouse Ig3); chimera 2 (human Ig1-mouse Ig2-mouse Ig3); (iv) chimera 3 (mouse Ig1-human Ig2-mouse Ig3) and (v) chimera 4 (human Ig1-mouse Ig2-human Ig3). The constructs are expressed as fusion proteins with alkaline phosphatase (AP) Persaud, et al., supra. The encoded proteins are isolated from conditioned media (CM) of transiently transfected cells and normalized to equal protein concentration and AP activity.

[4] = target: chimera 4 (human Ig1-mouse Ig2-human Ig3) sR3-AP (human; mouse, UniProt P05187 23-511); test: as above
Protocol: as §1, §2

[5] = target: T2, human sR3-AP (full-length soluble …); test: competitive VEGF-C blocking assay: Fab mixed with 50 ng sR3-AP, plates coated with VEGF-CΔNΔC, OD405; Fab, not IgG
Protocol: After an additional 2 hours, the plates are washed five times and p-nitrophenyl phosphate (Sigma) is added to quantify the bound sR3-AP molecules at OD₄₀₅ₙₘ.

B1: recombinant mature human VEGF-CΔNΔC (ligand)
chain: AHYNTEILKSIDNEWRKTQCMPREVCIDVGKEFGVATNTFFKPPCVSVYRCGGCCNSEGLQCMNTSTSYLSKTLFEITVPLSQGPKPVTISFANHTSCRCMSKL
incorporation of [3H]-TdR (mitogenic response) [1]: ≥ 3 fold

B2: Antibody 1 (IgG form) (antibody, V domains shown)
VH: QVQLQQSGPGLVKPSQTLSLTCAISGDSVSGNSATWNWIRQSPSRGLEWLGRTYYRSKWNHDYAESVKSRITINPDTSKNQFSLQLNSVTPEDTAVYYCARGDSSSWYAFDYWGQGTLVTVSS
VL: EIVLTQSPGTLSLSLGERATLSCRASQSISSSFLAWYQQKPGQAPKLLIYAASTRATGIPDRFSGSGSGTDFTLTISRLEPEDFAVYYCQQYGRSLSFGGGTKVEVKR
notes: also called human anti-VEGFR-3 mAb
Kd [2]: 0.056 nM
binding result [3]: no binding
binding result [4]: no binding

B3: Antibody 1 (Fab form) (Fab, V domains shown)
VH: B2 VH
VL: EIVLTQSPGTLSLSLGERATLSCRASQSISSSFLAWYQQKPGQAPKLLIYAASTRATGIPDRFSGSGSGTDFTLTISRLEPEDFAVYYCQQYGRSLSFGGGTKVEVK
notes: also called Fab of Antibody 1
IC50 [5]: 2 nM
